This data set deals with T1, rCf48 (recombinant Flag-Cf48 micropeptide) (mouse, UniProt Q3UR78 29-90).
T1 sequence: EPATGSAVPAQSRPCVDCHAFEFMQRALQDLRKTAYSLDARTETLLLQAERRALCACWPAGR
Kind of data set: EMSA; Thermo LightShift Chemiluminescent RNA EMSA kit (20158); buffer, salt, pH and temperature not given in the material. Conditions: protein: recombinant; tags: FLAG (Fc tag removed with enterokinase); label: biotin.

B1: Serpine1 mRNA 3'-most 134 nt WT probe (ssRNA)
RNA: CCAAAUGUGGGGUCACAUGGUCUUGAAUUUUGUGGGGUACAUAUGCCUUUGUUUGUUUGUUUUCACUUUUGAUAUAUAAACAGGUAAAUGUGUUUUUAAAAAAUAAUAAAAAUAGAGAAUAUGCAGACAAAAAAA
On to B1, for which the binding result is reported as “binds”.

B2: Acta2 mRNA 3'-most 132 nt WT probe (ssRNA)
RNA: GGUGACCAGAUAGGUAAAAAACAAUUUUACGUGUAUUUAAAAUUUGGCAAGUAAUAUGGUUUUAUUAAAAUCACAUCUUUUGUAUUAAAGCAUACACACGUGCAUGGAUAUGCAUGCGUGACUUUUAACUUG
On to B2, for which the binding result is on record as “binds”.
